The text below walks through data of paper PMC11098500 (PLOS Pathogens, 2024).

This experiment has as its target SARS-CoV-2 RBD (residues 319-529), His-tagged (SARS-CoV-2 (prototypic strain), UniProt P0DTC2 319-529). The experiment can be described thus: SPR. The following applies: both partners purified.

B1: raccoon dog ACE2 ectodomain (residues 1-614), Fc-tagged (Fc fusion)
chain: QSTEDLVNTFLEKFNYEAEELSYQSSLASWNYNTNITDENLQKMNNAGAKWSAFYEEQSKLAKTYPLEEIQDSTVKRQLRALQHSGSSVLSADKNQRLNTILNSMSTIYSTGKACNPSNPQECLLLEPGLDDIMENSKDYNERLWAWEGWRSEVGKQLRPLYEEYVALKNEMARANNYEDYGDYWRGDYEEEWENGYNYSRNQLIDDVEHTFTQIMPLYQHLHAYVRTKLMDTYPSYISPTGCLPAHLLGDMWGRFWTNLYPLTVPFGQKPNIDVTNAMVNQSWDARKIFKEAEKFFVSVGLPNMTQGFWENSMLTEPSDSWKVVCHPTAWDLGRGDFRIKMCTKVTMDDFLTAHHEMGHIQYDMAYAAQPFLLRNGANEGFHEAVGEIMSLSAATPNHLKNIGLLPPSFFEDSETEINFLLKQALTIVGTLPFTYMLEKWRWMVFKGEIPKDQWMKTWWEMKRNIVGVVEPVPHDETYCDPASLFHVANDYSFIRYYTRTIYQFQFQEALCQIAKHEGPLHKCDISNSSEAGQKLLEMLKLGKSKPWTYALEIVVGAKNMDVRPLLNYFEPLFTWLKEQNRNSFVGWNTDWSPYAD
Broadly, the Kd is a measure of binding affinity in units of concentration. A high value points to lower affinity. Consider B1, for which the affinity, expressed as Kd, was 399 nM.
